Measurements as given in the nanobody polyreactivity screen of Harvey et al. (2022).

Test: yeast display, Sf9 membrane polyspecificity reagent, FACS + sequencing; frameworks hold sequencing errors
Method in brief: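 Synthetic nanobody libraries on Saccharomyces cerevisiae BJ5465 were galactose-induced for 36–48 hours, stained 1 hour at 4 °C with 10% biotinylated, detergent-solubilized Sf9 membrane reagent and enriched on streptavidin microbeads. FACS then separated cells into low and high (top ~1%) gates by anti-HA (expression) and streptavidin (reagent binding) fluorescence. Genes were colony-PCR amplified, MiSeq 2 × 250 sequenced and CDR-length filtered. A clone's polyreactivity label is that of its gate of origin.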
With “QVQLVESGGGLVQAGGSLRLSCAASGRTFTTYTMGWYRQAPGKERELVAAISWGGTSTYYADSVKGRFTISRDNAKNTVYLQMNSLKPDDTAVYYCNVLERGPGGPDDSWGQGTQVTVSS” the “polyreactivity (PSR sort gate)” value was “low polyreactivity”.
With “QVQLVESGGGLVQAGGSLRLSCAASGRTFTVNAMGWYRQAPGKEREFVATISYRGGSTYADSVKGRFTISRDNAKNNVYLQMNSLKPEDTAVYYCAARSFWPYYGGDYDYWGQGNQVTVSS” the “polyreactivity (PSR sort gate)” value was “high polyreactivity”.
With “QVQLVESGGGLVQAGGSLRLSCAASGRTFTVYAMGGSRQAPGKERELVAGIRRGDSTYYADSVKGRFTISRDNAKNSVDFQMNSLKPEDTAVYYCNARSSGRSYYYWGQGTQVTVSS” the “polyreactivity (PSR sort gate)” value was “high polyreactivity”.
For “QVQLVESGGGLVQAGGSLRLSCAASGRTFTVYAMGWYRQAPGKEREFVATISWSGGRTYYADSVKGRFTISRDNAKNTVYLQMNSLKPEDTAVYYCSAQEYTTRFYFNRDYWGQGTQVTVSS”, the “polyreactivity (PSR sort gate)” value was “low polyreactivity”.
For “QVQLVESGGGLVQAGGSLRLSCAASGRTFTVYTMGWYRQAPGKERELVAVISTGGRTYYADSVKGRFTISRDNAMNTVYLQMNSLKPEDTAVYYCAAKFTREYYWGQGTQVTVSS”, the “polyreactivity (PSR sort gate)” value was “high polyreactivity”.
In the case of “QVQLVESGGGLVQAGGSLRLSCAASGRTFTWNAMGWYRQAPGKERELVADITNNGGSTYYADSVKGRFTISRDNAKNTVYLQMNSLKPEDTAVYYCAKRRNYWFSFDYWGQGTQVTVSS”, the “polyreactivity (PSR sort gate)” value is reported as “low polyreactivity”.
For “QVQLVESGGGLVQAGGSLRLSCAASGRTFTYNAMGWYRQAPGKERELVAAITYRGGSTYYADSVKGRFTISRDNSNNTVYLQMNSLKPEDTAVYYCAASVSYYRYNTPHYYYWGQGTQVTVSS”, the “polyreactivity (PSR sort gate)” value was “high polyreactivity”.
In the case of “QVQLVESGGGLVQAGGSLRLSCAASGRTFTYNAMGWYRQAPGKERELVASIRRSGTITYYADSVKGRFTISRDNAKNTVYLQMNSLKPEDTAVYYCAARYPWYRYYSWGQGTQVTVSS”, the “polyreactivity (PSR sort gate)” value is reported as “high polyreactivity”.
In the case of “QVQLVESGGGLVQAGGSLRLSCAASGRTFTYNTMGWYRQAPGKERELVAAISSRGGRTYYADSVKGRFTISRDNAKNTVYLQMNSLKPEDTAVYYCNADYRYPQYYHRTWIRYDYWGQGTQVTVSS”, the “polyreactivity (PSR sort gate)” value is reported as “high polyreactivity”.
For “QVQLVESGGGLVQAGGSLRLSCAASGRTFTYNTMGWYRQAPGKERELVAAISSSGGSTYYADSVKGRFTISRDNAKNTVYLQMNSLKPEDTAVYYCAKRYFSSSRYYYWGQGTQVTVSS”, the “polyreactivity (PSR sort gate)” value was “high polyreactivity”.
For “QVQLVESGGGLVQAGGSLRLSCAASGRTFTYYAMGWYRQAPGKERELVAAITSGGRTYYADSVKGRFTISRDNAKNTVYLQMNSLKPEDTAVYYCAARRIRDYYRSYDYWGQGTQVTVSS”, the “polyreactivity (PSR sort gate)” value was “high polyreactivity”.
With “QVQLVESGGGLVQAGGSLRLSCAASGRTFTYYAMGWYRQAPGKERELVAAITWSGGSTYYADSVKGRFTISRDNAKNTVYLQMNSLKPEDTAVYYCAAVDADYYYWGQGTQVTVSS” the “polyreactivity (PSR sort gate)” value was “high polyreactivity”.
With “QVQLVESGGGLVQAGGSLRLSCAASGRTFTYYAMGWYRQAPGKERELVATIRSGGTTNYADSVKGRFTISRDNAKNTVYLQMNSLKPEDTAVYYCARVLSYVWYYRDPYQYPDYDYWGQGTQVTVSS” the “polyreactivity (PSR sort gate)” value was “low polyreactivity”.
For “QVQLVESGGGLVQAGGSLRLSCAASGRTFVDYAMGWYRQAPGKERELVAAINTGGRTKYADSVKGRFTISRDNAKITVYLQMNSLKPEDTAVYYCAARKQYGGVRGDYWGQGTQVTVSS”, the “polyreactivity (PSR sort gate)” value was “high polyreactivity”.
In the case of “QVQLVESGGGLVQAGGSLRLSCAASGRTFVDYVMGWYRQAPGKERELVAAISRSGSTYYADSVKGRFTISRDNAKNTVYLQMNSLKPEDTAVYYCNVEYLRTYYILSDYWGQGTQVTVSS”, the “polyreactivity (PSR sort gate)” value is reported as “low polyreactivity”.
In the case of “QVQLVESGGGLVQAGGSLRLSCAASGRTFVFNAMGWYRQAPGKERELVAAITKNGGSTYYADSVKGRFTISRDNAKNPVYLQMNSLKPEDTAVYYCAGRRGYPFYYWGQGTQVTVSS”, the “polyreactivity (PSR sort gate)” value is reported as “low polyreactivity”.
For “QVQLVESGGGLVQAGGSLRLSCAASGRTFVFYAMGWYRQAPGKERELVAAISSSGGSTYYADSVKGRFTISRDNAKNTVYLQMNSLKPEDTAVYYCNADFYSVGSQYGYWGQGTQVTVSS”, the “polyreactivity (PSR sort gate)” value was “high polyreactivity”.
With “QVQLVESGGGLVQAGGSLRLSCAASGRTFVGNAMGWYRQAPGKERELVATITGSGGRTYYADSVKGRFTISRDNAKNTVYLQMNSLKPEDTAVYYCAAKRSRYRYDYWGQGTQVTVSS” the “polyreactivity (PSR sort gate)” value was “high polyreactivity”.
In the case of “QVQLVESGGGLVQAGGSLRLSCAASGRTFVGNAMGWYRQAPGKERELVATITRRGGSTYYADSVKGRFTISRDNAKNTVYLQMNSLKPEDTAVYYCSAGSQPGRKYYYWGQGTQVTVSS”, the “polyreactivity (PSR sort gate)” value is reported as “high polyreactivity”.
With “QVQLVESGGGLVQAGGSLRLSCAASGRTFVGNGKGWYRLAPGKERELLASISFSGGAGTYYADSVKGRFTISRDNAKYTVYLQMNSLKPEDTAVYYCAKRYVTPTYRRYYWGPGTQVTVSS” the “polyreactivity (PSR sort gate)” value was “high polyreactivity”.
For “QVQLVESGGGLVQAGGSLRLSCAASGRTFVGYAMGWYRQAPGKEREFVAAISYRGGRTYYADSVKGRFTISRDNAKNTVYLQMNSLKPEDTAVYYCAAEYRSNHGGVDYWGQGTQVTVSS”, the “polyreactivity (PSR sort gate)” value was “high polyreactivity”.
In the case of “QVQLVESGGGLVQAGGSLRLSCAASGRTFVGYAMGWYRQAPGKERELVAAISIGGGRTYYADSVKGRFTISRDNAKNTVYLQMNSLKPEDTAVYYCAAVFRQSNRHGGYDYWGQGTQVTVSS”, the “polyreactivity (PSR sort gate)” value is reported as “high polyreactivity”.
In the case of “QVQLVESGGGLVQAGGSLRLSCAASGRTFVGYPMGWCRQAPGKERELVAAIDLSDGSTSYADSVKGRFTISRDHAKNTVYLQMISLTPEHTAVYYCAKTSANVYAGAHDSWGQGTQVTVSS”, the “polyreactivity (PSR sort gate)” value is reported as “low polyreactivity”.
With “QVQLVESGGGLVQAGGSLRLSCAASGRTFVGYVMGWDRQAPGKERELVAAISTSGGRTYYADSVKGRFTISRDNAKNTGYLQMNSLKPEDTAVYYCNAVSKQPIGYEYWGQGSQVTVSS” the “polyreactivity (PSR sort gate)” value was “high polyreactivity”.
In the case of “QVQLVESGGGLVQAGGSLRLSCAASGRTFVHYTMGWYRQAPGKERELVAAISGTGTSTYYADSVKGRFTISRDNAKNTVYLQMNSLKPEDTAVYYCARDPFFGFHIGYPRRDYWGQGTQVTVSS”, the “polyreactivity (PSR sort gate)” value is reported as “low polyreactivity”.
With “QVQLVESGGGLVQAGGSLRLSCAASGRTFVIYAMGWYRQAPGKERELVAAISKGGGSTYYADSVKGRFTISRDNAKNTVYLQMNSLKPEDTAVYYCAAGYGTYYQYSRFDYWGQGTQVTVSS” the “polyreactivity (PSR sort gate)” value was “high polyreactivity”.
In the case of “QVQLVESGGGLVQAGGSLRLSCAASGRTFVIYDMGWYRQAHGKERELVAGITRSGGSTYADSVKGRFTISRDNAKNTVYLQMNSLKPEDTAVYYGARRKLYHKSPYDYWGQGTQVTVSS”, the “polyreactivity (PSR sort gate)” value is reported as “low polyreactivity”.
For “QVQLVESGGGLVQAGGSLRLSCAASGRTFVKNTMGWYRQATGKERELVAAISSSGGSTYYADSVKGRFTISRHNAKNTVYLQMNSLNPEDTAVYFCAVSYPYKHAGGWYAYNYWGQGTQVTVSS”, the “polyreactivity (PSR sort gate)” value was “high polyreactivity”.
In the case of “QVQLVESGGGLVQAGGSLRLSCAASGRTFVLNVMGWYRQAPGKERELVADITSGDNTYYADSVKGRFTISRDNAKNTVYLQRNSLKPEDTAVYYCAADGWFYFGYDYWGQGTQVTVSS”, the “polyreactivity (PSR sort gate)” value is reported as “low polyreactivity”.
For “QVQLVESGGGLVQAGGSLRLSCAASGRTFVLYTMGWYRQAPGKERELLAVGSTYYADSVKGRFTISRDNAKNTVYLQMNSLKPEDTAVYYCAVDLYWSYFNGALGYRYYYWGQGTQVTVSS”, the “polyreactivity (PSR sort gate)” value was “high polyreactivity”.
With “QVQLVESGGGLVQAGGSLRLSCAASGRTFVLYTMGWYRQAPGKERELVAAISGSGGRSYYADSVKGRFTISRDHAKNSVYLQMNSLKPEDTAVYYCAAYGQGLPLYGYWGQGTQVTVSS” the “polyreactivity (PSR sort gate)” value was “high polyreactivity”.
For “QVQLVESGGGLVQAGGSLRLSCAASGRTFVNYALGWYRQAPGKERELVAAISGGGGTNYADSVKGRFTISRDNAKNTVYLQMNSLKPEDTAVYYCNAVPSQHDEFDYWGQGTQVTVSS”, the “polyreactivity (PSR sort gate)” value was “low polyreactivity”.
With “QVQLVESGGGLVQAGGSLRLSCAASGRTFVPYAMGWYRQAPGKEREFVAAISSRVASTYYADSVKGRFTISRDNAKNTVYLQMNSLKPEDTAVYYCARTNPAYSIYDYWGQGTQVTVSS” the “polyreactivity (PSR sort gate)” value was “low polyreactivity”.
With “QVQLVESGGGLVQAGGSLRLSCAASGRTFVPYAMGWYRQAPGKERELVARIDSSGGSTYYADSVKGRFTISRDNAKNTVYLQMNSLKPEDTAVYYCAAVFYYWSLRSYYWGQGTQVTVSS” the “polyreactivity (PSR sort gate)” value was “high polyreactivity”.
In the case of “QVQLVESGGGLVQAGGSLRLSCAASGRTFVQNAMGWYRQAPGKERELVASIRYRDGSTYYADSVKGRFTISRDNAKNTVYLQMNSLKPEDTAVYYCAAYLPGWELREYGYWGQGTQVTVSS”, the “polyreactivity (PSR sort gate)” value is reported as “high polyreactivity”.
In the case of “QVQLVESGGGLVQAGGSLRLSCAASGRTFVQYVMGRYRQAPGKERELVAAITSSGGSTYADSVKGRFTISRDNAKNTVYLQMNSLKPEDTAVYYSAADYLDGVGDVEHDYWGQGTQVTVSS”, the “polyreactivity (PSR sort gate)” value is reported as “low polyreactivity”.
With “QVQLVESGGGLVQAGGSLRLSCAASGRTFVRNAMGWYRQAPGKERELVAAISVDGSSTYYADSVKGRFTISRDNAKNTVYLQMNSLKPEDTAVYYCNADWDYRDFYDITYDYWGQGTQVTVSS” the “polyreactivity (PSR sort gate)” value was “low polyreactivity”.
In the case of “QVQLVESGGGLVQAGGSLRLSCAASGRTFVRNTMGWYRQAPGKERELVAAISGGGSTYYADSVKGRFTISRDNAKNTVYLQMNSLKPEDTAVYYCAATTRRQGGKRFDYWGQGTQVTVSS”, the “polyreactivity (PSR sort gate)” value is reported as “high polyreactivity”.
In the case of “QVQLVESGGGLVQAGGSLRLSCAASGRTFVRYAMGWSRQAPGKERELVAAITKSGGSTSYADSVKGRFTISRDNAKNTVYLQMNSLKPEDTAVYYCATRGYYQRSSPMDYWGQGTQVTVSS”, the “polyreactivity (PSR sort gate)” value is reported as “high polyreactivity”.
In the case of “QVQLVESGGGLVQAGGSLRLSCAASGRTFVRYAMGWYRQAPGKERELVAAISLRGGRTYYADSVKGRFTISRDYANNTVYLQMNSRNPEDTAVYYCAARSYPTGASFDYWGQGTQVTVSS”, the “polyreactivity (PSR sort gate)” value is reported as “high polyreactivity”.
With “QVQLVESGGGLVQAGGSLRLSCAASGRTFVRYAMGWYRQAPGKERELVAAISWSGGSTYYADSVKGRFTISRDNAKNTVYLQMNSLKPADTAVYYCAAYYRGRNFDYCGQGTQVTVSS” the “polyreactivity (PSR sort gate)” value was “high polyreactivity”.
